# Source: patent US20170081400A1 (CEPHALON, published 2017)
# T1: human TL1A extracellular domain with N-terminal HIS and FLAG tag (human, UniProt O95150 72-251)
# T1 construct: the whole entry is named
# T1 sequence: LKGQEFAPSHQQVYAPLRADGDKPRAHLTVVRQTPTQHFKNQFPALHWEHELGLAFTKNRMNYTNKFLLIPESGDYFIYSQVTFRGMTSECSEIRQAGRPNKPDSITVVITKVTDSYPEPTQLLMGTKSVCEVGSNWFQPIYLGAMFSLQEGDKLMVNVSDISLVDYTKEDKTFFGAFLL
# Tests used:
# [1] = target: T1, human TL1A extracellular domain with …; assay: SPR Run 4, purified Ab captured on Protein A, TL1A 5 ug/mL, timepoint 44
# Description: (§1) 1.5. Antibody expression and antigen binding as determined by SPR. Using a CM5 sensor chip (GE Healthcare) Protein A (Pierce) was coupled to the chip surface using an amine coupling kit (GE Healthcare). Protein A was coupled on flow cell 1 and 2 (or alternatively 3 and 4) using a BIACORE® T200. […] The amount of supernatant or purified protein (as well as the concentration) injected during the capture stage varied between runs and is specified in the header of the Tables 3-11. At the end of injection of the supernatant or purified antibody the change in response units was measured. This value was reported as Capture Level in Tables 3-11. […] The response units were measured prior to the end of the dissociation phase. […] The sensorgrams were double referenced (flow cell 2 is subtracted from flow cell 1 and a buffer blank). As there were a large number of antibody variants to screen, these were screened across different runs (Tables 3-11). […] A summary of the conditions used in each run is below:
# (§2) 2.1. […] In some experiment the antibodies were purified using Protein A chromatography (See 1.4) and purified antibodies were used in BIACORE® (GE Healthcare) experiments.
# [2] = target: T1, human TL1A extracellular domain with …; assay: SPR Run 4, purified Ab captured on Protein A, TL1A 5 ug/mL, timepoint 220
# Description: as §1, §2
# [3] = target: T1, human TL1A extracellular domain with …; assay: SPR Run 5, Ab from supernatant captured on Protein A, TL1A 5 ug/mL, timepoint 44
# Description: as §1, §2
# [4] = target: T1, human TL1A extracellular domain with …; assay: SPR Run 5, Ab from supernatant captured on Protein A, TL1A 5 ug/mL, timepoint 220
# Description: as §1, §2
Binder,TL1A Binding Level (Early) [1] [RU],TL1A Binding Level (Late) [2] [RU],TL1A Binding Level (Early) [3] [RU],TL1A Binding Level (Late) [4] [RU]
"320-315 (antibody, human IgG1, name in Kabat numbering, V domains shown, human IgG1, lambda) VH: QVQLVQSGAEVKKPGASVKVSCKASGYTFTSYDINWVRQAPGQGLEWMGWLNPNSGNTGYAQKFQGRVTMTADRSTSTAYMELSSLRSEDTAVYYCAREVPETAAFEYWGQGTLVTVSS VL: QSVLTQPPSVSGAPGQRVTISCTSSSSDIGAGLGVHWYQQLPGTAPKLLIEGYYNRPSGVPDRFSGSKSGTSASLTITGLLPEDEGDYYCLSYDGTLSALFGGGTKLTVLG",85,82,,
"320-327 (antibody, human IgG1, name in Kabat numbering, V domains shown, human IgG1, lambda) VH: QVQLVQSGAEVKKPGASVKVSCKASGYTFTSYDINWVRQAPGQGLEWMGWLNPNSGNTGYAQKFQGRVTMTADRSTSTAYMELSSLRSEDTAVYYCAREVPETAAFEYWGQGTLVTVSS VL: QSVLTQPPSVSGAPGQRVTISCTSSSSDIGAGLGVHWYQQLPGTAPKLLIEGYYNRPSGVPDRFSGSKSGTSASLTITGLLPEDEGDYYCQSQDGTLSALFGGGTKLTVLG",130,119,,
"320-319 (antibody, human IgG1, name in Kabat numbering, V domains shown, human IgG1, lambda) VH: QVQLVQSGAEVKKPGASVKVSCKASGYTFTSYDINWVRQAPGQGLEWMGWLNPNSGNTGYAQKFQGRVTMTADRSTSTAYMELSSLRSEDTAVYYCAREVPETAAFEYWGQGTLVTVSS VL: QSVLTQPPSVSGAPGQRVTISCTSSSSDIGAGLGVHWYQQLPGTAPKLLIEGYYNRPSGVPDRFSGSKSGTSASLTITGLLPEDEGDYYCQQYDGTLSALFGGGTKLTVLG",18,14,,
"320-320 (antibody, human IgG1, name in Kabat numbering, V domains shown, human IgG1, lambda) VH: QVQLVQSGAEVKKPGASVKVSCKASGYTFTSYDINWVRQAPGQGLEWMGWLNPNSGNTGYAQKFQGRVTMTADRSTSTAYMELSSLRSEDTAVYYCAREVPETAAFEYWGQGTLVTVSS VL: QSVLTQPPSVSGAPGQRVTISCTSSSSDIGAGLGVHWYQQLPGTAPKLLIEGYYNRPSGVPDRFSGSKSGTSASLTITGLLPEDEGDYYCQDYDGTLSALFGGGTKLTVLG",31,17,,
"320-330 (antibody, human IgG1, name in Kabat numbering, V domains shown, human IgG1, lambda) VH: QVQLVQSGAEVKKPGASVKVSCKASGYTFTSYDINWVRQAPGQGLEWMGWLNPNSGNTGYAQKFQGRVTMTADRSTSTAYMELSSLRSEDTAVYYCAREVPETAAFEYWGQGTLVTVSS VL: QSVLTQPPSVSGAPGQRVTISCTSSSSDIGAGLGVHWYQQLPGTAPKLLIEGYYNRPSGVPDRFSGSKSGTSASLTITGLLPEDEGDYYCQSLDGTLSALFGGGTKLTVLG",139,119,,
"320-317 (antibody, human IgG1, name in Kabat numbering, V domains shown, human IgG1, lambda) VH: QVQLVQSGAEVKKPGASVKVSCKASGYTFTSYDINWVRQAPGQGLEWMGWLNPNSGNTGYAQKFQGRVTMTADRSTSTAYMELSSLRSEDTAVYYCAREVPETAAFEYWGQGTLVTVSS VL: QSVLTQPPSVSGAPGQRVTISCTSSSSDIGAGLGVHWYQQLPGTAPKLLIEGYYNRPSGVPDRFSGSKSGTSASLTITGLLPEDEGDYYCYSYDGTLSALFGGGTKLTVLG",86,83,,
"320-316 (antibody, human IgG1, name in Kabat numbering, V domains shown, human IgG1, lambda) VH: QVQLVQSGAEVKKPGASVKVSCKASGYTFTSYDINWVRQAPGQGLEWMGWLNPNSGNTGYAQKFQGRVTMTADRSTSTAYMELSSLRSEDTAVYYCAREVPETAAFEYWGQGTLVTVSS VL: QSVLTQPPSVSGAPGQRVTISCTSSSSDIGAGLGVHWYQQLPGTAPKLLIEGYYNRPSGVPDRFSGSKSGTSASLTITGLLPEDEGDYYCWSYDGTLSALFGGGTKLTVLG",65,62,,
"320-325 (antibody, human IgG1, name in Kabat numbering, V domains shown, human IgG1, lambda) VH: QVQLVQSGAEVKKPGASVKVSCKASGYTFTSYDINWVRQAPGQGLEWMGWLNPNSGNTGYAQKFQGRVTMTADRSTSTAYMELSSLRSEDTAVYYCAREVPETAAFEYWGQGTLVTVSS VL: QSVLTQPPSVSGAPGQRVTISCTSSSSDIGAGLGVHWYQQLPGTAPKLLIEGYYNRPSGVPDRFSGSKSGTSASLTITGLLPEDEGDYYCQSADGTLSALFGGGTKLTVLG",95,83,,

# The remaining lines, values ahead:
TL1A Binding Level (Early) [1] [RU],TL1A Binding Level (Late) [2] [RU],TL1A Binding Level (Early) [3] [RU],TL1A Binding Level (Late) [4] [RU],Binder
,,9,8,"320-421 (antibody, human IgG1, V domains shown, human IgG1, lambda; the other rows have T at 28 and F at 29, so F29Y is probably meant) VH: QVQLVQSGAEVKKPGASVKVSCKASGYTYTSYDINWVRQAPGQGLEWMGWLNPNSGNTGYAQKFQGRVTMTADRSTSTAYMELSSLRSEDTAVYYCAREVPETAAFEYWGQGTLVTVSS VL: QSVLTQPPSVSGAPGQRVTISCTSSSSDIGAGLGVHWYQQLPGTAPKLLIEGYYNRPSGVPDRFSGSKSGTSASLTITGLLPEDEGDYYCQSYDGTLSALFGGGTKLTVL"
95,67,,,"320-333 (antibody, human IgG1, name in Kabat numbering, V domains shown, human IgG1, lambda) VH: QVQLVQSGAEVKKPGASVKVSCKASGYTFTSYDINWVRQAPGQGLEWMGWLNPNSGNTGYAQKFQGRVTMTADRSTSTAYMELSSLRSEDTAVYYCAREVPETAAFEYWGQGTLVTVSS VL: QSVLTQPPSVSGAPGQRVTISCTSSSSDIGAGLGVHWYQQLPGTAPKLLIEGYYNRPSGVPDRFSGSKSGTSASLTITGLLPEDEGDYYCQSYSGTLSALFGGGTKLTVLG"
173,176,,,"320-331 (antibody, human IgG1, name in Kabat numbering, V domains shown, human IgG1, lambda) VH: QVQLVQSGAEVKKPGASVKVSCKASGYTFTSYDINWVRQAPGQGLEWMGWLNPNSGNTGYAQKFQGRVTMTADRSTSTAYMELSSLRSEDTAVYYCAREVPETAAFEYWGQGTLVTVSS VL: QSVLTQPPSVSGAPGQRVTISCTSSSSDIGAGLGVHWYQQLPGTAPKLLIEGYYNRPSGVPDRFSGSKSGTSASLTITGLLPEDEGDYYCQSWDGTLSALFGGGTKLTVLG"
,,6,6,"320-431 (antibody, human IgG1, name in Kabat numbering, V domains shown, human IgG1, lambda) VH: QVQLVQSGAEVKKPGASVKVSCKASGYTFTAYDINWVRQAPGQGLEWMGWLNPNSGNTGYAQKFQGRVTMTADRSTSTAYMELSSLRSEDTAVYYCAREVPETAAFEYWGQGTLVTVSS VL: QSVLTQPPSVSGAPGQRVTISCTSSSSDIGAGLGVHWYQQLPGTAPKLLIEGYYNRPSGVPDRFSGSKSGTSASLTITGLLPEDEGDYYCQSYDGTLSALFGGGTKLTVLG"
66,44,,,"320-332 (antibody, human IgG1, name in Kabat numbering, V domains shown, human IgG1, lambda) VH: QVQLVQSGAEVKKPGASVKVSCKASGYTFTSYDINWVRQAPGQGLEWMGWLNPNSGNTGYAQKFQGRVTMTADRSTSTAYMELSSLRSEDTAVYYCAREVPETAAFEYWGQGTLVTVSS VL: QSVLTQPPSVSGAPGQRVTISCTSSSSDIGAGLGVHWYQQLPGTAPKLLIEGYYNRPSGVPDRFSGSKSGTSASLTITGLLPEDEGDYYCQSYAGTLSALFGGGTKLTVLG"
149,135,,,"320-341 (antibody, human IgG1, name in Kabat numbering, V domains shown, human IgG1, lambda) VH: QVQLVQSGAEVKKPGASVKVSCKASGYTFTSYDINWVRQAPGQGLEWMGWLNPNSGNTGYAQKFQGRVTMTADRSTSTAYMELSSLRSEDTAVYYCAREVPETAAFEYWGQGTLVTVSS VL: QSVLTQPPSVSGAPGQRVTISCTSSSSDIGAGLGVHWYQQLPGTAPKLLIEGYYNRPSGVPDRFSGSKSGTSASLTITGLLPEDEGDYYCQSYDSTLSALFGGGTKLTVLG"
,,6,6,"320-430 (antibody, human IgG1, name in Kabat numbering, V domains shown, human IgG1, lambda) VH: QVQLVQSGAEVKKPGASVKVSCKASGYTFYSYDINWVRQAPGQGLEWMGWLNPNSGNTGYAQKFQGRVTMTADRSTSTAYMELSSLRSEDTAVYYCAREVPETAAFEYWGQGTLVTVSS VL: QSVLTQPPSVSGAPGQRVTISCTSSSSDIGAGLGVHWYQQLPGTAPKLLIEGYYNRPSGVPDRFSGSKSGTSASLTITGLLPEDEGDYYCQSYDGTLSALFGGGTKLTVLG"
145,132,,,"320-340 (antibody, human IgG1, name in Kabat numbering, V domains shown, human IgG1, lambda) VH: QVQLVQSGAEVKKPGASVKVSCKASGYTFTSYDINWVRQAPGQGLEWMGWLNPNSGNTGYAQKFQGRVTMTADRSTSTAYMELSSLRSEDTAVYYCAREVPETAAFEYWGQGTLVTVSS VL: QSVLTQPPSVSGAPGQRVTISCTSSSSDIGAGLGVHWYQQLPGTAPKLLIEGYYNRPSGVPDRFSGSKSGTSASLTITGLLPEDEGDYYCQSYDATLSALFGGGTKLTVLG"
21,15,,,"320-337 (antibody, human IgG1, name in Kabat numbering, V domains shown, human IgG1, lambda) VH: QVQLVQSGAEVKKPGASVKVSCKASGYTFTSYDINWVRQAPGQGLEWMGWLNPNSGNTGYAQKFQGRVTMTADRSTSTAYMELSSLRSEDTAVYYCAREVPETAAFEYWGQGTLVTVSS VL: QSVLTQPPSVSGAPGQRVTISCTSSSSDIGAGLGVHWYQQLPGTAPKLLIEGYYNRPSGVPDRFSGSKSGTSASLTITGLLPEDEGDYYCQSYLGTLSALFGGGTKLTVLG"
